The source of these data is paper PMC5218534, “Structural and biochemical analyses of the DEAD-box ATPase Sub2 in association with THO or Yra1” (eLife, 2017).

The target in one data set is T1, Sub2 (full-length) (Saccharomyces cerevisiae, UniProt Q07478).
T1 construct: full-length, expressed in E. coli BL21-CodonPlus(DE3)-RIL with N-terminal GST tag removed by TEV
T1 sequence (Q07478 1-446): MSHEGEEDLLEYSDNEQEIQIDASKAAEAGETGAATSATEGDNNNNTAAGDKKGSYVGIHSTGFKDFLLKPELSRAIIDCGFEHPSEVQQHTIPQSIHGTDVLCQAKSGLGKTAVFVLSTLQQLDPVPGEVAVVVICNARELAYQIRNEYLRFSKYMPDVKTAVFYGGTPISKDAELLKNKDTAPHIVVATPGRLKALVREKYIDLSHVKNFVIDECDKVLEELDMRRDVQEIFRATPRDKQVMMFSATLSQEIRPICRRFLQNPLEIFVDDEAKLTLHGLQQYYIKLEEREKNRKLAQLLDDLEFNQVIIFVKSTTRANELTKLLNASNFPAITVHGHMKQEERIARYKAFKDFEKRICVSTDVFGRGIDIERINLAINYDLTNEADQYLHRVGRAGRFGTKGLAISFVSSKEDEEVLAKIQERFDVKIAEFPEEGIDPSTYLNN
As to the kind of experiment: NADH enzyme-coupled ATPase assay. The class given is biochemical. The following applies: 1 mM ATP; 10 µM poly(U) 20-mer RNA; 2 mM MgCl2, pH 7.0, 37 °C; no THO or Yra1.

Data set [1] deals with T2, DEAD-box ATPase Sub2, full length (S. cerevisiae, UniProt Q07478 1-446).
T2 sequence (looked up): T1 sequence (Q07478 1-446)
As to the kind of experiment: cell-based or functional assay.

The target of a further data set is T3, Sub2 (a.a. 62-446) (S. cerevisiae, UniProt Q07478 62-446).
T3 construct: source: E. coli BL21-CodonPlus(DE3)-RIL, purified (glutathione sepharose, TEV, mono Q, Superdex 200); not shown: GST, N-terminal, cleaved
T3 sequence (looked up): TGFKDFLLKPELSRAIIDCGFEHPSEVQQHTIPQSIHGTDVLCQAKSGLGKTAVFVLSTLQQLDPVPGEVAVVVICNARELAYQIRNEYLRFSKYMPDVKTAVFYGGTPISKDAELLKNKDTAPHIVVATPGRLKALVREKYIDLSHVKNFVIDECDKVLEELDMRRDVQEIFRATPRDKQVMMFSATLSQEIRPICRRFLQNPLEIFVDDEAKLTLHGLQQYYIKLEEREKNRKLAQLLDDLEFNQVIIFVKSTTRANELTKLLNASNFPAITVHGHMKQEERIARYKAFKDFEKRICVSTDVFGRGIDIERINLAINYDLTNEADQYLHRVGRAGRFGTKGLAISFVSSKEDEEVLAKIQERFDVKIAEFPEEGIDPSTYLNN
As to the kind of experiment: crystal structure; Sub2 (62-446), Yra1-C* and poly(U) 15-mer RNA mixed 1:1.2:1.2 with 2 mM MgCl2 and ADP•BeF3; sitting drop, 4 °C, 100 mM Bis-Tris pH 5.5, 20% PEG3350, 0.2 M ammonium acetate; 2.6 Å. The following applies: both partners purified.

In a further data set the target is T4, Sub2 (62-446);Yra1-C* (Saccharomyces cerevisiae?;Saccharomyces …, UniProt Q07478;Q12159 62-446;200-226, |).
T4 sequence 1: T3 sequence (looked up)
T4 sequence 2: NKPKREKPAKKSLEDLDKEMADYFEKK
As to the kind of experiment: X-ray crystallography 2.6 A; ADP-BeF3; EMSA: 20 nM RNA, 20 mM HEPES pH 7.0, 100 mM NaCl, 1 mM TCEP, 2 mM MgCl2, 5% glycerol, 0.5 U/ul SUPERase-In, 1 mM nucleotide as indicated; room temperature, 10 min; 5% native PAGE, 45 mM Tris-borate. The settings on record: protein: recombinant;recombinant; tags: N-terminal GST removed by TEV;N-terminal GST removed by TEV; copies: 1;1; single strand. On the technique in general: A gel shift assay detects complexes by their altered migration in electrophoresis.

The next data set deals with T5, Yra1 C-box (UniProt Q12159 208-226).
T5 chain: AKKSLEDLDKEMADYFEKK
As to the kind of experiment: EMSA; C-box without Sub2; EMSA: 20 nM RNA, 20 mM HEPES pH 7.0, 100 mM NaCl, 1 mM TCEP, 2 mM MgCl2, 5% glycerol, 0.5 U/ul SUPERase-In, 1 mM nucleotide as indicated; room temperature, 10 min; 5% native PAGE, 45 mM Tris-borate. The following applies: label: 5' Alexa488; single strand.

A further data set deals with T6, Yra1-C (UniProt Q12159 185-226).
T6 chain: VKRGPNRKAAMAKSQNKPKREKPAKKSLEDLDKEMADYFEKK
As to the kind of experiment: EMSA; Yra1-C without Sub2; EMSA: 20 nM RNA, 20 mM HEPES pH 7.0, 100 mM NaCl, 1 mM TCEP, 2 mM MgCl2, 5% glycerol, 0.5 U/ul SUPERase-In, 1 mM nucleotide as indicated; room temperature, 10 min; 5% native PAGE, 45 mM Tris-borate. The following applies: protein: recombinant; tags: N-terminal GST removed by TEV; label: 5' Alexa488; single strand.

A further data set concerns the target T7, Sub2 (UniProt Q07478 1-446).
T7 sequence: T1 sequence (Q07478 1-446)
As to the kind of experiment: EMSA; 1 mM ATP-gamma-S, 2 mM MgCl2; EMSA: 20 nM RNA, 20 mM HEPES pH 7.0, 100 mM NaCl, 1 mM TCEP, 2 mM MgCl2, 5% glycerol, 0.5 U/ul SUPERase-In, 1 mM nucleotide as indicated; room temperature, 10 min; 5% native PAGE, 45 mM Tris-borate. The settings on record: protein: recombinant; tags: N-terminal GST removed by TEV; label: 5' Alexa488; single strand.

For the next data set, the target named is T8, Sub2;Yra1-C (Saccharomyces cerevisiae?;Saccharomyces …, UniProt Q07478;Q12159 1-446;185-226, |).
T8 sequence 1: T1 sequence (Q07478 1-446)
T8 sequence 2: T6 chain
Kind of data set: EMSA; 1 mM ATP-gamma-S, 2 mM MgCl2; Yra1-C promotes Sub2-RNA binding, trimeric complex; EMSA: 20 nM RNA, 20 mM HEPES pH 7.0, 100 mM NaCl, 1 mM TCEP, 2 mM MgCl2, 5% glycerol, 0.5 U/ul SUPERase-In, 1 mM nucleotide as indicated; room temperature, 10 min; 5% native PAGE, 45 mM Tris-borate. The following applies: protein: recombinant;recombinant; tags: N-terminal GST removed by TEV;N-terminal GST removed by TEV; copies: 1;1; label: 5' Alexa488; single strand.

For data set [2], the target named is THO core complex (THO*) (S. cerevisiae | S. bayanus) (UniProt P53552).
Chain of THO core complex (THO*) (S. cerevisiae | S. bayanus) (P53552 whole entry, looked up, one chain of several): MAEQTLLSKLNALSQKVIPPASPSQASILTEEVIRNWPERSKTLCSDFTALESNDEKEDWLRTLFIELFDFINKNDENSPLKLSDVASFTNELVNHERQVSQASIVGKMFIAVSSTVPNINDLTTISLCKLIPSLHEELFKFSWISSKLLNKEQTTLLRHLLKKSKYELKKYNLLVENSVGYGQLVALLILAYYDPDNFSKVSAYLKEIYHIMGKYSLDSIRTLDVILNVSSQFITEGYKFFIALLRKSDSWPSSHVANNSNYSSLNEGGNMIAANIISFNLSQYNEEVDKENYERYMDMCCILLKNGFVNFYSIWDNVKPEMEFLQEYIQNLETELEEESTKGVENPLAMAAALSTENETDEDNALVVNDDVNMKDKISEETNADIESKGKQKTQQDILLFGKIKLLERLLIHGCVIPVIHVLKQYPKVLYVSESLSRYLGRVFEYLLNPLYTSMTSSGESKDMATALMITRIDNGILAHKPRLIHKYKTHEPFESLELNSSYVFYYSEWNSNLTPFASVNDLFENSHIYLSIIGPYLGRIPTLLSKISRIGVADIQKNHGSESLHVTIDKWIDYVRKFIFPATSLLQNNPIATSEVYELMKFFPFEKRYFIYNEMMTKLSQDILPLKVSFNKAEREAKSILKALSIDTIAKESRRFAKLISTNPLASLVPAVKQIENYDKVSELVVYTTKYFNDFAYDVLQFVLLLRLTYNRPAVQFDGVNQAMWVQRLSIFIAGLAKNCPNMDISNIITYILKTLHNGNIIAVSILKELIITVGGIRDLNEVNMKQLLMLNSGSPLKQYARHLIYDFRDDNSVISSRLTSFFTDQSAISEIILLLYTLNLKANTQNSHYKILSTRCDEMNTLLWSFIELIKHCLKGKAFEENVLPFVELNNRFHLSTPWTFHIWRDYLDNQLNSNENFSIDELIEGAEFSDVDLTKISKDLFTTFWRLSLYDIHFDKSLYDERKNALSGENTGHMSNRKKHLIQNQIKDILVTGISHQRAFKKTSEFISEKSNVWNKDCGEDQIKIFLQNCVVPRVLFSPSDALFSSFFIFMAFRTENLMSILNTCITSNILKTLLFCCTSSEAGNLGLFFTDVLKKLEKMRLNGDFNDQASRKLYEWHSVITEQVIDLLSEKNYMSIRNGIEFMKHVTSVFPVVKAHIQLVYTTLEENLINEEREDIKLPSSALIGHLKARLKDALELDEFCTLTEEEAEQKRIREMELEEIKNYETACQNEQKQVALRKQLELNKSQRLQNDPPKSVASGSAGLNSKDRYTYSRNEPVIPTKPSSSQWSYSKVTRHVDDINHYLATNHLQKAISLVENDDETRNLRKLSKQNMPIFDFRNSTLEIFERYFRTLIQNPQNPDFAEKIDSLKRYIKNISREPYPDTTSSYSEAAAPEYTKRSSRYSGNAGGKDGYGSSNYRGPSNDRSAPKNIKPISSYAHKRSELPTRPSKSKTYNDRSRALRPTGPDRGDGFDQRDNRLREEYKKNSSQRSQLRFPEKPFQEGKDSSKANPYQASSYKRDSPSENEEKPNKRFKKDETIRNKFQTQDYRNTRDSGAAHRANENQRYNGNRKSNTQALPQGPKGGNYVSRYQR

Regarding `Nc1ncnc2c1ncn2[C@@H]1O[C@H](COP(=O)(O)OP(=O)(O)OP(=O)(O)O)[C@@H](O)[C@H]1O` [ATP], the “NADH enzyme-coupled ATPase assay” value on Sub2 (full-length) is on record as “Sub2 ATPase activity (mole of ADP produced per second per mole of Sub2)”. With VKRGPNRKAAMAKSQNKPKREKPAKKSLEDLDKEMADYFEKK (domain or fragment, S. cerevisiae, UniProt Q12159 185-226, looked up) [C-terminal fragment of Yra1, Yra1-C (a.a. 185-226)], the “stimulation of the Sub2 ATPase activity by Yra1-C (NADH-coupled ATPase assay, 2 μM Sub2, 10 μM Yra1, 10 μM poly(U) RNA, 37 °C)” value in data set [1] is approximately 2 fold.

B1: truncated Yra1-C (Yra1-C*, a.a. 200-226) (domain or fragment, S. cerevisiae, UniProt Q12159 200-226, looked up)
chain: NKPKREKPAKKSLEDLDKEMADYFEKK
notes: source: E. coli BL21-CodonPlus(DE3)-RIL, purified (glutathione sepharose, TEV, mono S, Superdex 200); not shown: GST, N-terminal, cleaved
On to B1, for which, in the data set with Sub2 (a.a. 62-446), the binding result is reported as “binds”.

Regarding UUUUUUUUUUUUUUU (ssRNA) [poly(U) 15-mer RNA], the binding result in the data set with Sub2 (62-446);Yra1-C* is “binds”.

For UUUUUUUUUUUUUUUUUUUU (ssRNA) [poly(U) 20-mer RNA], the binding result with Yra1 C-box is listed as “no binding”; with Yra1-C, “binds”; with Sub2 it was “binds”; with Sub2;Yra1-C, “binds”.

B2: DEAD-box ATPase Sub2, full length (enzyme)
chain: T1 sequence (Q07478 1-446)
On to B2, for which the stimulation of the Sub2 ATPase activity by THO* (NADH-coupled ATPase assay, 2 μM Sub2, 2 μM THO, 10 μM poly(U) RNA, 37 °C) in data set [2] is 3.5 fold.
